One test deals with FMC63. Nature of the test: CD19 variant binding to anti-CD19 antibody FMC63 (score). The note with it: Table 1B, CD19 triple mutants.
The target in the next test is CLEC12A. Briefly: ELISA binding of fusion proteins (FMC63 coat, HRP-anti-His detection). Also on record: species or system human. The following applies: purified fusion protein, FMC63 coat; read-out: CLEC12A binding (ELISA EC50). As to the method: The binding of the biparatopic fusion proteins to CLEC12A was also examined by ELISA. […] The plate was left to incubate overnight at 4° C. The coated plate was blocked with TBS/0.3% nonfat dry milk (NFD) for 60 minutes at RT.
In general terms: ELISA stands for enzyme-linked immunosorbent assay.

Here are results for 2 molecules from patent US20220387487A1, “COMPOSITIONS AND METHODS FOR TREATMENT OF CANCER” (Aleta Biotherapeutics Inc., priority 2019, published 2022).

Chain of CLEC12A (as listed by the source): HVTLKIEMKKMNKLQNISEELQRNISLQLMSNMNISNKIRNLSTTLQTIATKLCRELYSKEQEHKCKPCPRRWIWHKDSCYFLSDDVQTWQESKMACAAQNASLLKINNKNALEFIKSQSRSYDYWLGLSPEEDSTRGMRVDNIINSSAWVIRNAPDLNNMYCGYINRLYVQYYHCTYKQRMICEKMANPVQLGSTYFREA
Chain of FMC63 (as listed by the source): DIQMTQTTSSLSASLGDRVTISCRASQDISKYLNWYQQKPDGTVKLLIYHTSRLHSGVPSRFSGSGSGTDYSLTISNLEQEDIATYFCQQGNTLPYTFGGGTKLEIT
Chain of FMC63 (as listed by the source): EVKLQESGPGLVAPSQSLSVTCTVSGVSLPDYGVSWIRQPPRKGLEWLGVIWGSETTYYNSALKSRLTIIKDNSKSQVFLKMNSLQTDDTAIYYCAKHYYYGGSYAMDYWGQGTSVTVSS

B1: W62S/F64R/F66R: CD19 variant (protein)
chain: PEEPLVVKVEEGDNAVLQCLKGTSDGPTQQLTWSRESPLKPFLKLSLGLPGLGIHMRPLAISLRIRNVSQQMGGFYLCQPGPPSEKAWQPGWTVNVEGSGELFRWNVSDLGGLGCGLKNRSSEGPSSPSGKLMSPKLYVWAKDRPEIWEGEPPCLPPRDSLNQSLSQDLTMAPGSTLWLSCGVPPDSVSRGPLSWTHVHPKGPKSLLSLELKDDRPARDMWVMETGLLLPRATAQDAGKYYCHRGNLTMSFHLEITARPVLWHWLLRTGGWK
With B1, in the test with FMC63, the “FMC63 Binding Score” value is reported as 13.7 ± 1.9.

B2: #321: purified fusion protein of CD19 variant and anti-CLL-1 VHH; SEQ ID NO:303 (protein)
chain: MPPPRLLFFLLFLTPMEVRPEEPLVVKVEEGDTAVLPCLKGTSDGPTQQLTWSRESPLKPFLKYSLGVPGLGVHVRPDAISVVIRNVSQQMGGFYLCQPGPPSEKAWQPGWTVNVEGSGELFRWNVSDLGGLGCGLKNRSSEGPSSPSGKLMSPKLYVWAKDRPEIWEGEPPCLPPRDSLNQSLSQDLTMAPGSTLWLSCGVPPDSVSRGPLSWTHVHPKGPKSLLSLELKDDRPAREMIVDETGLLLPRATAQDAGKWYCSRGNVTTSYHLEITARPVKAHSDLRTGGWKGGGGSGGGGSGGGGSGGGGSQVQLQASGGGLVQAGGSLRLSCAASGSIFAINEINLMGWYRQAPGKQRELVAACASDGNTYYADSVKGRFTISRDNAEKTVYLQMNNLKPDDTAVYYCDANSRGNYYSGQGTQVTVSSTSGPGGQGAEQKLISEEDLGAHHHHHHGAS
As for B2, on CLEC12A, the half-maximal effective concentration (EC50) (commonly the concentration needed to bring the measured effect to its halfway point) is 0.09 nM.
